Source: IntAct's records for PubMed 28360110

B1: Solute carrier family 26 member 9 (Homo sapiens), Q7LBE3-1 (parent)
chain: MSQPRPRYVVDRAAYSLTLFDDEFEKKDRTYPVGEKLRNAFRCSSAKIKAVVFGLLPVLSWLPKYKIKDYIIPDLLGGLSGGSIQVPQGMAFALLANLPAVNGLYSSFFPLLTYFFLGGVHQMVPGTFAVISILVGNICLQLAPESKFQVFNNATNESYVDTAAMEAERLHVSATLACLTAIIQMGLGFMQFGFVAIYLSESFIRGFMTAAGLQILISVLKYIFGLTIPSYTGPGSIVFTFIDICKNLPHTNIASLIFALISGAFLVLVKELNARYMHKIRFPIPTEMIVVVVATAISGGCKMPKKYHMQIVGEIQRGFPTPVSPVVSQWKDMIGTAFSLAIVSYVINLAMGRTLANKHGYDVDSNQEMIALGCSNFFGSFFKIHVICCALSVTLAVDGAGGKSQVASLCVSLVVMITMLVLGIYLYPLPKSVLGALIAVNLKNSLKQLTDPYYLWRKSKLDCCIWVVSFLSSFFLSLPYGVAVGVAFSVLVVVFQTQFRNGYALAQVMDTDIYVNPKTYNRAQDIQGIKIITYCSPLYFANSEIFRQKVIAKTGMDPQKVLLAKQKYLKKQEKRRMRPTQQRRSLFMKTKTVSLQELQQDFENAPPTDPNNNQTPANGTSVSYITFSPDSSSPAQSEPPASAEAPGEPSDMLASVPPFVTFHTLILDMSGVSFVDLMGIKALAKLSSTYGKIGVKVFLVNIHAQVYNDISHGGVFEDGSLECKHVFPSIHDAVLFAQANARDVTPGHNFQGAPGDAELSLYDSEEDIRSYWDLEQEMFGSMFHAETLTAL

Variants of: B1
Details: with gopc_human GOPC

Variant	effect of a mutation on the interaction
T789A	decreasing interaction strength
